Test results from US20140165223A1, “TNF SUPERFAMILY TRIMERIZATION INHIBITORS” (B.S.R.C. "Alexander Fleming", priority 2011, published 2014).

T1: RANKL (Mus musculus, UniProt O35235, G278R)
T1 construct: expressed in transfected cells; host or cells: HEK 293FT
T1 sequence (O35235 1-316 G278R): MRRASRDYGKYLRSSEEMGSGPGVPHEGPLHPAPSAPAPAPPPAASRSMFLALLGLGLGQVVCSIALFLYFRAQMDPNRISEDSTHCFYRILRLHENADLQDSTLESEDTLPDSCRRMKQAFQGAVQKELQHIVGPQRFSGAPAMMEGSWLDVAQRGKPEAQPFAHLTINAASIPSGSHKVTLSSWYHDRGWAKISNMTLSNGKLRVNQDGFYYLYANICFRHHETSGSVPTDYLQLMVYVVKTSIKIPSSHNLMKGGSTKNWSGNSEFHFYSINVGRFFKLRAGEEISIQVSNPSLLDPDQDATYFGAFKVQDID

T2: RANKL (Mus musculus, UniProt O35235)
T2 construct: expressed in transfected cells; host or cells: HEK 293FT
T2 sequence (O35235 1-316): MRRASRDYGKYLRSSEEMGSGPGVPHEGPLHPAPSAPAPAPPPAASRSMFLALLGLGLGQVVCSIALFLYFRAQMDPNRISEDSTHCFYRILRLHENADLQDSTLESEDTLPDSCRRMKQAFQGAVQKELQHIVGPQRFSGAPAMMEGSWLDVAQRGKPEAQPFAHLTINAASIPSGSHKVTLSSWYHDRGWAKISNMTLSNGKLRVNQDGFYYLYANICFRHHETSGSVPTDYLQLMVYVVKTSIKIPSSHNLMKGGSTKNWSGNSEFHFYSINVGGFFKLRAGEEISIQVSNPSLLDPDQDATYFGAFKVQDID

T3: GST-RANKL (Mus musculus, UniProt O35235)
T3 construct: a cDNA encoding the core ectodomain of murine RANKL residues 158-316, with or without the G278R substitution; made in house; host or cells: Escherichia coli BL21
T3 sequence (O35235 158-316): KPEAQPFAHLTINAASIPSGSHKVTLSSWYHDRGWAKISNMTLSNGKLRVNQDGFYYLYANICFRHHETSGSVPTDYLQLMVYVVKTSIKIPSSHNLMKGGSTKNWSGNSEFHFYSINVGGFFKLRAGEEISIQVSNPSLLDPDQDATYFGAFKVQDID


How the values were obtained:
[1] = target: T1, RANKL; assay: Trimer formation in transfected HEK 293FT cells (native gel, Western blot); format: cell-based; conditions: HEK 293FT, RANKL^G278R-Myc
Experimental: (§1) Similar to the analysis of recombinant RANKL proteins, trimer formation was detected only in WT RANKL-Myc but not in RANKL^G278R-Myc.
(§2) HEK 293FT cells were transfected with 1 μg plasmid DNA using TransIt-293 transfection reagent (Mirus, Madison, Wis.). After 48 hours, transfected cells were harvested in PBS and the half quantity was diluted in equal volume of 2× Laemmli sample buffer, and analyzed in 12% acrylamide denatured gels. The remaining cells were lysed by sonication, centrifuged, and analyzed in 8% native acrylamide gels.

[2] = target: T2, RANKL; assay: as above; format: cell-based; conditions: co-transfection with WT RANKL-FLAG
Experimental: as §1, §2

[3] = target: T4, RANK-Fc (Mus musculus, UniProt O35305); assay: Binding assay of GST-RANKL^G278R to RANK; conditions: immobilized protein, serial dilutions of murine RANK-Fc
T4 construct: purchased R&D systems
Experimental: RANK-Fc interacted with GST-RANKL in a dose-dependent manner, but not with GST-RANKL^G278R or GST.
Nunc plates were coated with recombinant WT GST-RANKL, GST-RANKL^G278R or GST at 3 μg/ml and after blocking with 1% BSA, were incubated with increasing amount of recombinant mouse RANK-Fc (R&D systems). RANK binding was detected with a phycoerythrin (PE) conjugated goat anti-human IgG (Fc) (SouthernBiotech, Birmingham, USA) that was measured (539-573 nm) with the fluorescent plate reader TECAN infinite M200.

[4] = target: T3, GST-RANKL; assay: Ex vivo RANKL-induced osteoclast formation (BM cells, M-CSF + GST-RANKL, TRAP staining); format: cell-based
Experimental: (§3) Instead, WT GST-RANKL (ratio 1:0) induced formation of TRAP+ giant osteoclasts (FIGS. 5A-5C). […] Incubation of WT GST-RANKL with GST at similar concentrations (12.5-100 ng/ml), didn't affect the formation of osteoclasts.
(§4) A novel small molecule inhibitor of TNF trimerization, named SPD304, has been recently reported^[35] to interact with glycine 122 (G122) that corresponds to G278 in RANKL.
(§5) BM cells were collected after flushing out of femurs and tibiae, subjected to gradient purification using FICOLL-PAQUE™ (GE Healthcare), plated in 24-well plates at a density of 5×10^5 cells per well and cultured in αMEM medium (GIBCO) containing 10% fetal bovine serum supplemented with 40 ng/ml RANKL (R&D Systems) and 25 ng/ml M-CSF (R&D Systems) for 5 days. Similarly, splenocytes were collected, plated in 24-well plates at a density of 10^6 cells per well and cultured in the presence of recombinant RANKL and M-CSF for 6 days. GST-RANKL^G278R was pre-incubated with WT GST-RANKL at room temperature for 20 min, prior to the stimulation of the BM cell cultures, in order to enable exchange of the RANKL variants and heterotrimer formation. Small molecule SPD304 (Sigma-Aldrich) was pre-incubated with 80 ng/ml GST-RANKL at various concentrations from 0.25 to 2 μM in αMEM medium for 1 hour at room temperature and then added to culture. Osteoclasts were stained for TRAP activity.

[5] = tested on: GST-RANKL; assay: as above; format: cell-based, mouse; conditions: ratio WT GST-RANKL:GST-RANKL^G278R 0:1
Experimental: as §3, §4, §5

T4 sequence (O35305 with tags, fused parts or gaps limits assumed): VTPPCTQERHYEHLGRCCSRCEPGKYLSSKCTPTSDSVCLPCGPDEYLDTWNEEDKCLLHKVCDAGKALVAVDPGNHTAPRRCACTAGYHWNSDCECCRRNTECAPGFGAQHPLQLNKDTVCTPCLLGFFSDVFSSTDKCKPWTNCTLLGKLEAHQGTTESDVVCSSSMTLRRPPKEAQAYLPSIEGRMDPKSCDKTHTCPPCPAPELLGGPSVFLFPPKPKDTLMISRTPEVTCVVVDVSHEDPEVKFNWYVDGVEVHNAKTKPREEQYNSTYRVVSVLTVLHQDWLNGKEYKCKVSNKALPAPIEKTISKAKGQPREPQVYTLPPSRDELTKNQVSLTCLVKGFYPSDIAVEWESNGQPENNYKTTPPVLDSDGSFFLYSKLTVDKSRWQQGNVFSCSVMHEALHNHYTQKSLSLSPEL

Molecule | own trimer formation in eukaryotic cells [1] | effect on WT RANKL trimerization [2] | binding affinity for RANK-Fc [3] | formation of TRAP+ giant multinucleated cells ([4]; ratio WT GST-RANKL:GST-RANKL^G278R 1:1) | formation of multinucleated TRAP+ osteoclasts ([4]; ratio WT GST-RANKL:GST-RANKL^G278R 1:2 (50 ng/ml GST-RANKL, 100 ng/ml variant)) | formation of TRAP+ giant multinucleated cells ([4]; ratio WT GST-RANKL:GST-RANKL^G278R 2:1) | formation of giant osteoclast-like cells ([4]; ratio WT GST-RANKL:GST-RANKL^G278R 4:1 or higher) | induction of TRAP+ cells by the variant alone [5]
RANKL^G278R: murine RANKL with glycine to arginine substitution at residue 278; soluble or full-length Myc-tagged (protein, UniProt O35235 139-316, looked up, variant G278R, Myc tag, murine RANKL with glycine to arginine substitution at residue 278; soluble or full-length Myc-tagged) Tumor necrosis factor ligand …: FSGAPAMMEGSWLDVAQRGKPEAQPFAHLTINAASIPSGSHKVTLSSWYHDRGWAKISNMTLSNGKLRVNQDGFYYLYANICFRHHETSGSVPTDYLQLMVYVVKTSIKIPSSHNLMKGGSTKNWSGNSEFHFYSINVGRFFKLRAGEEISIQVSNPSLLDPDQDATYFGAFKVQDID | fails to form trimers | inhibits WT RANKL trimerization |  |  |  |  |  | 
GST-RANKL^G278R: murine RANKL ectodomain residues 158-316 with G278R substitution, fused to GST (protein) KPEAQPFAHLTINAASIPSGSHKVTLSSWYHDRGWAKISNMTLSNGKLRVNQDGFYYLYANICFRHHETSGSVPTDYLQLMVYVVKTSIKIPSSHNLMKGGSTKNWSGNSEFHFYSINVGRFFKLRAGEEISIQVSNPSLLDPDQDATYFGAFKVQDID |  |  | completely abolished | completely impaired the formation of TRAP+ giant multinucleated cells | Complete inhibition in the formation of multinucleated TRAP+ osteoclasts | a small number of TRAP+ giant multinucleated cells was formed | Formation of giant osteoclast-like-cells appeared | failed to induce formation of TRAP+ cells
